Laboratory results reported in patent US20040241845A1 (UNIVERSIT DE MONTR AL, published 2004).

Legend:
[1] = target: T1, Staufen/YFP fusion protein (human, UniProt O95793 82-577); test: BRET in live 293T cells
T1 construct: BRET acceptor, expressed in live 293T cells; also called pCMV-Staufen/YFP; not shown: YFP of pCMV-GFP-Topaz (red-shifted GFP variant of Aequorea victoria GFP); its substitutions and the junction are not pri
T1 sequence: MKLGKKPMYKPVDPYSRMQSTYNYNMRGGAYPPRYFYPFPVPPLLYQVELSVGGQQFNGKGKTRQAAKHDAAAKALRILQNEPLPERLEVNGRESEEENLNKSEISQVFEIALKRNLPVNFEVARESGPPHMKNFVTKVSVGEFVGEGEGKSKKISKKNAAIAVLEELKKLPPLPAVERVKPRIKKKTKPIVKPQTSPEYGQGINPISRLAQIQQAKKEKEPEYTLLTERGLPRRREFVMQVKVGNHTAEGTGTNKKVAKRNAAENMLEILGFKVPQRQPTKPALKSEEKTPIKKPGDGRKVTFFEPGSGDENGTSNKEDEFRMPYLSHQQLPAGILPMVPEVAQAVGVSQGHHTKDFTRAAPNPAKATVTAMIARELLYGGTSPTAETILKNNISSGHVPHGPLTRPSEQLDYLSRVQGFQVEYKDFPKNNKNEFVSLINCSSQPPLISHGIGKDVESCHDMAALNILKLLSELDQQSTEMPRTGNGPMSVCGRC

[2] = target: HIV-1 CA (processed form of pr55Gag, CAp24/p25) (HIV-1 (pNL4-3), UniProt P12493 133-363); test: co-immunoprecipitation with anti-HA
[3] = target: T2, HIV-1 pr55Gag (Gag precursor expressed from pNL4-3 proviruses) (HIV-1 (pNL4-3), UniProt P12493 2-500); test: co-immunoprecipitation with anti-CA, Western with anti-HA
T2 construct: In lysates of transfected 293T cells; The anti-CA antibody also pulls down pr41Gag and CAp24/p25

B1: NC/Rluc (other)
chain: MQRGNFRNQRKIVKCFNCGKEGHTARNCRAPRKKGCWKCGKEGHQMKDCTERQAN
notes: domain: NC; not shown: Renilla reniformis luciferase (Rluc) of pRluc-N1(h)
Does B1 bind [1]?
Result: binds

B2: Staufen-HA (wild-type human Staufen, short isoform, HA-tagged) (other)
chain: MKLGKKPMYKPVDPYSRMQSTYNYNMRGGAYPPRYFYPFPVPPLLYQVELSVGGQQFNGKGKTRQAAKHDAAAKALRILQNEPLPERLEVNGRESEEENLNKSEISQVFEIALKRNLPVNFEVARESGPPHMKNFVTKVSVGEFVGEGEGKSKKISKKNAAIAVLEELKKLPPLPAVERVKPRIKKKTKPIVKPQTSPEYGQGINPISRLAQIQQAKKEKEPEYTLLTERGLPRRREFVMQVKVGNHTAEGTGTNKKVAKRNAAENMLEILGFKVPQRQPTKPALKSEEKTPIKKPGDGRKVTFFEPGSGDENGTSNKEDEFRMPYLSHQQLPAGILPMVPEVAQAVGVSQGHHTKDFTRAAPNPAKATVTAMIARELLYGGTSPTAETILKNNISSGHVPHGPLTRPSEQLDYLSRVQGFQVEYKDFPKNNKNEFVSLINCSSQPPLISHGIGKDVESCHDMAALNILKLLSELDQQSTEMPRTGNGPMSVCGRC
notes: Expressed in 293T cells from the pNL4-3/Staufen-HA chimeric provirus (in the nef reading frame) or from a Staufen-HA expressor (pcDNA3-RSV-hStau-HA); Runs as a 60 kDa band; also called hStau/HA; HA-hStau
Does B2 bind [2]?
Result: no binding

B3: Staufen F135A-HA (full-length Staufen with a point mutation in dsRBD3) (other)
chain: MKLGKKPMYKPVDPYSRMQSTYNYNMRGGAYPPRYFYPFPVPPLLYQVELSVGGQQFNGKGKTRQAAKHDAAAKALRILQNEPLPERLEVNGRESEEENLNKSEISQVFEIALKRNLPVNFEVARESGPPHMKNAVTKVSVGEFVGEGEGKSKKISKKNAAIAVLEELKKLPPLPAVERVKPRIKKKTKPIVKPQTSPEYGQGINPISRLAQIQQAKKEKEPEYTLLTERGLPRRREFVMQVKVGNHTAEGTGTNKKVAKRNAAENMLEILGFKVPQRQPTKPALKSEEKTPIKKPGDGRKVTFFEPGSGDENGTSNKEDEFRMPYLSHQQLPAGILPMVPEVAQAVGVSQGHHTKDFTRAAPNPAKATVTAMIARELLYGGTSPTAETILKNNISSGHVPHGPLTRPSEQLDYLSRVQGFQVEYKDFPKNNKNEFVSLINCSSQPPLISHGIGKDVESCHDMAALNILKLLSELDQQSTEMPRTGNGPMSVCGRC
notes: Expressed from the pNL4-3/StaufenF135A-HA chimeric provirus
Does B3 bind [3]?
Result: no binding

B4: p2-p1/Rluc (other)
chain: AEAMSQVTNSATIMMQRGNFRNQRKIVKCFNCGKEGHTARNCRAPRKKGCWKCGKEGHQMKDCTERQANFLGKIWPSYKGRPGNF
notes: domain: p2-p1; not shown: Renilla reniformis luciferase (Rluc) of pRluc-N1(h)
Does B4 bind [1]?
Result: binds

B5: p6/Rluc (other)
chain: LQSRPEPTAPPEESFRSGVETTTPPQKQEPIDKELYPLTSLRSLFGNDPSSQ
notes: domain: p6; not shown: Renilla reniformis luciferase (Rluc) of pRluc-N1(h)
Does B5 bind [1]?
Result: no binding

B6: MA/Rluc (other)
chain: MGARASVLSGGELDRWEKIRLRPGGKKKYKLKHIVWASRELERFAVNPGLLETSEGCRQILGQLQPSLQTGSEELRSLYNTVATLYCVHQRIEIKDTKEALDKIEEEQNKSKKKAQQAAADTGHSNQVSQNY
notes: domain: MA; not shown: Renilla reniformis luciferase (Rluc) of pRluc-N1(h)
Does B6 bind [1]?
Result: no binding
